# From the RNAGym collection of RNA variant scans (doi:10.1073/pnas.2313332121)
# B1: TPR t1 (parent)
# chain: GACCAAUCUGCCCUCAGAGCUCGAGAACAUCUUCGGAUGCAGAGGAGGCAGGCUUCGGUGGCGCGAUAGCGCCAACGUCCUCAACCUCCAAUGCAUCCCACCACAUGAUGAUGCCUGAAGAGCCUUGGUUUUUUG
# Variants of: B1
# Assay: polymerase ribozyme fitness, log enrichment relative to wild type (log ratio); higher = more active; in vitro selection for triplet polymerase activity
# In short: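 After PCR construction and transcription, each subunit's mutant library from a heterodimeric triplet polymerase ribozyme was annealed with a biotinylated primer, the partner subunit and triplets. Incubation was frozen, at −7 °C, and extended constructs were gel-excised, bound to streptavidin beads and amplified by RT-PCR, in one selection round done in triplicate. Fitness is the logarithm of a genotype's enrichment divided by that of the wild type, from inverse-variance-weighted replicate averages of Illumina-sequenced inputs and outputs. The base of the logarithm is 2, and genotypes needed ≥10 input reads and ≥1 read per output.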
row,Variant,polymerase ribozyme fitness (log ratio)
1,C49G G69C U78C,-2.8
2,C49G G69U,-0.396
3,C49G G69U U125A G128A,-3.1
4,C49G G77A U112G,-0.318
5,C49G G93A,-1.26
6,C49G G93A U133A,-0.83
7,C49G G110A,-1.31
8,C49G G120U C124A G135U,-1.63
9,C49G G127A,-1.65
10,C49G U55C C76U A95C C98U,-2.41
11,C49G U55G,-1.16
12,C49G U55G U129A,-1.82
13,C49G U59G,-0.612
14,C49G U59G C62G C72U,-4.88
15,C49G U112C G113A,-2.11
16,C49U A50C,-0.544
17,C49U A50G G51A U54G G61A U112C,-0.096
18,C49U A50G G71U A105U,-4.83
19,C49U A66C C86G C88U U92A C114U,-5.32
20,C49U A66G C73A C101A G128A,-4.92
21,C49U A95G,-1.14

row,Variant,polymerase ribozyme fitness (log ratio)
1,C49U C53A A111C,-0.429
2,C49U C53U C89U,-0.369
3,C49U C53U C97U,-1.14
4,C49U C56A A68G,-5.08
5,C49U C56U,-0.758
6,C49U C56U U109G,-5.37
7,C49U C62U A118U,-0.00141
8,C49U C70G,-3.77
9,C49U C72G U78C,-1.33
10,C49U C72U C115U C123G,-2.4
11,C49U C73G A121C,0.163
12,C49U C73U G110A,-1.42
13,C49U C73U U78C G110U,-2.87
14,C49U C76G G113A,-1.81
15,C49U C76U U81A C88A,-3.72
16,C49U C79G C104A,-5.16
17,C49U C82A,-0.514
18,C49U C82G,-0.241
19,C49U C82U,-0.598
20,C49U C82U A121U G127A,0.337
21,C49U C85A,-2.47

row,Variant,polymerase ribozyme fitness (log ratio)
1,C49U C97U,-1.01
2,C49U C102G C104A C124A U130A,-4.4
3,C49U C123G G128C,-1.69
4,C49U C124U,1.03
5,C49U C124U U132A,0.615
6,C49U G51A,-1.4
7,C49U G51A C88A,-3.64
8,C49U G51U C62U C80A G113A C124A,-3.94
9,C49U G57U C79U C101A G128U,-4.04
10,C49U G60A C97G,-5.67
11,C49U G61A U96A,-0.582
12,C49U G63U A95G U112A,-2.42
13,C49U G69C,-1.79
14,C49U G69U,0.911
15,C49U G69U A121C,1.51
16,C49U G71A U130C,-1.63
17,C49U G113U G117U,-5.67
18,C49U G120A,0.0229
19,C49U G128C,-2.44
20,C49U G135C,-0.277
21,C49U U59A U78C A84G,-1.51

row,Variant,polymerase ribozyme fitness (log ratio)
1,C49U U81A C89A,-4.05
2,C49U U81G U96C,-4.63
3,C49U U106A U126A,-2.78
4,A50C A66C A100U,-3.95
5,A50C A66U C72U U81G C85A,-3.05
6,A50C A90C U133G,-1.46
7,A50C C53U C56A,-0.754
8,A50C C53U C97U,-1.01
9,A50C C53U G57A U96A G117A U132A,-5.61
10,A50C C56G,-0.303
11,A50C C62A C79U,-1.8
12,A50C C62U C94U,-0.553
13,A50C C64U G77A,-0.681
14,A50C C70G,-3.56
15,A50C C70U,-2.04
16,A50C C72A C124U U130A,0.593
17,A50C C72G G127A,-2.8
18,A50C C79G U125A,-1.78
19,A50C C82U G117U,-2.93
20,A50C C86G G127U,-2.12
